Measurements from the DeepSol protein solubility set.

test: soluble on expression in E. coli; label from the status in PepcDB or PDB records

| Sequence | soluble on expression in E. coli |
| --- | --- |
| MAYKHILIAVDLSPESKVLVEKAVSMARPYNAKISLIHVDVNYSDLYTGLIDVNLGDMQKRISEETHHALTELSTNAGYPITETLSGSGDLGQVLVDAIKKYDMDLVVCGHHQDFWSKLMSSARQLINTVHVDMLIVPLRDEEE | not soluble |
| MAYKVYLKDLADVDDGSRCESSSILTQNQPTTIASSGFVMSNPNVKSPSLPSSATNWNSEYSVTEPTMSPADQILKDSVARKKRSMVDLTELNQLYGKGYKPPAPSARTPPTIYENLAINAPSSPSATDASSVPLTFIEKHHEFKKLVPSGTDGRFELFLKVADCFD | not soluble |
| MAYWLLKSEPQVYGIEDLEREGRAIWDGVRNYQARNYLMQMKEGDLCFFYHSGTTPPGIAGRCRVVRTLLPDPTQFDPESPYYDPKATPEKPRWYTVEVAFVEKWPLVPLAELKALFPPDHPLVKRGNRLSVMPVPPEVAEALIVRRGSR | soluble |
| MCFFLLCFLDSFRNRDTTQSDTDVIYPRDDPRASRSHQNFGFMDPPPRYEQIFKRGGGTPSVITTREAPSVTRSTGDGSLPPSYEQAALNARRESRPQLPQGTLREVPLTAIDMEHPAMSTPSSTVLDMESEITNITNHAQACVHRYDASHANEVTRTAVAVTTESPAPAQSTSNALPELEAPEGGPPGYDTISLHNETVSTR | not soluble |
| MCGGRGTRLDTKVEKPLFRIGGVPMVGRVVGALEDSAVERIIAATSPNAPETQSCLDVPCIETPGEGYVADLNAALNDDRLSQPVLTVAADLPLLDGEIVDRVLDEHNGGSLTVLVPASLKRALGVSDDTTFDNGGREVAPTGVNVVSDGPDDAWLTRDRRVAVNVNTLADARVAEQWLLEHHHHHH | not soluble |
| MCGRFVLKATPEEIADYLDLIGLEDFPARFNIAPTQPILVVMEGEQQERGSNLPNRRAVLVRWGFMPGWVKDPKDFPLLINARSETAIGKASFRAAMRHRRVLIPATGFYEWRRPPKEEGGKAQPYFIRPKNGGIVAFAGLMETWSSADGSEVDTGAILTTAANAAIGRIHDRMPVVIAPEDFSRWLDCKTQEPREVADLMRPVQGDFFEMIPVSDKVNKVANVGADLIDPVPESAPLAKVRPAKDDGQMSLFLEHHHHHH | not soluble |
| MCGRIAQKSAPEDYVEILWPNARLIFDDVAGPRYNIPPGTRPLTMHRLVDQAEALARLPWGYKPHGSSFFMINAKLETIERHGWPWKLMIGTGRILVPADGWYEWKALDSGPKPAKQPYYIHGDAPLLFAGLSAWRRGAELDEAHGFAIVTNDALGGMVDVHDRRPVALPPELAREWVDPATPVARAKEILRAGLPETAFSWYPVRQEVGSSKYQLPDAVDPLLEHHHHHH | soluble |
| MCKLAGPQHSEIGFPISTDNASWRGPNIEAGGKSAYNNVQVGE | not soluble |
| MCLNFREDNVMKKIMVIFGTRPEAIKMAPLVKEIDHNGNFEANIVITAQHRDMLDSVLSIFDIQADHDLNIMQDQQTLAGLTANALAKLDSIINEEQPDMILVHGDTTTTFVGSLAAFYHQIPVGHVEAGLRTHQKYSPFPEELNRVMVSNIAELNFAPTVIAAKNLLFENKDKERIFITGNTVIDALSTTVQNDFVSTIINKHKGKKVVLLTAHRRENIGEPMHQIFKAVRDLADEYKDVVFIYPMHRNPKVRAIAEKYLSGRNRIELIEPLDAIEFHNFTNQSYLVLTDSGGIQEEAPTFGKPVLVLRNHTERPEGVEAGTSRVIGTDYDNIVRNVKQLIEDDEAYQRMSQANNPYGDGQASRRICEAIEYYFGLRTDKPDEFVPLRHK | not soluble |
| MCMSVFKRLRDLTMSNVYSLIEKAEDPVKMTDQYLRDMQADVQEAEKSVAAQIALEKKFKILFEEQEALVKKREEQAHMAVQASNLDLARRALEEKQNAEQKMNEYKASYEQNKAAADNLRLKLEEMRKQLTELKNKRETLVARVNAAKAQKNINQAMSGFDSNSAKAGLSRMEEKALQLEAEAEASGEVYKKEKSLDDEFASLNKNSAVDDELARIMKQYEKMAGDPLEHHHHHH | not soluble |
| MCMSWSKVKYFFFDTPEEKEAAQYSYEKEQTDMKKQQDPPEQQDVTFPKAQPKQNVVSIETAKQSSKVVLLEPRTYSEAQGIADHLKGRRAVVINLQRMSTDQAVRIVDFLSGTVYAIGGDIQKIGPKTFMTPENVDIVGAISELFGEEEDTNIKRWLEHHHHHH | soluble |
| MCNDTATPQLEELVTTVANQLMTVDAATSAEVSQRVLAYLVEQLGVDVSFLRHNDRDRRATRLVAEWPPRLNIPDPDPLRLIYFADADPVFALCEHAKEPLVFRPEPATEDYQRLIEEARGVPVTSAAAVPLVSGEITTGLLGFIKFGDRKWLEHHHHHH | not soluble |
| MCPVENKWLKVGQKGAGPGARSSHAMTVVGNKVYCFGGELKPTIHIDNDLYVFDLETQEWSIAPATGEAPFPCFGVSMVTIGSTIYVYGGRDDKRRYNGLHSYDTETNEWKLLAPVEEGLPGRSYHSMAGDDRKVYVFGGVTAKGRVNTLHAYDVVDQKWVEYPAAGEACKGRGAPGLVVVEGRIWVLFGFDGNELGDIHCFDLASEQWKAVETTGDVPAARSVFPAVSYGKYIVIYGGEEEPHELMHMGAGKMSGEVYQLDTETLVWERIVCGNEEEKPSQRGWCAFTKAVKDGEEGLLVHGGNSPTNERLDDLVFWGFSHLNVN | soluble |
| MCSSETIVKLNVGGSVFETWKSTLTKQDGFFKTLVETNIPVKKDTSDCYFIDRSPKYFETVLNYMRSGVTVLPDSEKELQELKKEAEFYLLEQLVDLCEPINNQIRTYRSSHELLQIIASTKKPVVVINYITHNNDIIYIPEGFRFDEFVKKNSSVVEIYFQPMDNREPLPKDLRRHRGMKYYPEPVWSYRIYNSTHSGCVDLTAMDDLQKKIDSILNGE | not soluble |
| MCSTEKLSEADANLPYFHGALMNIDADQLLVNEGDFMVTMKKQLDINKLQLFLAVRLKKGIRRYEIKRTSKTAKIGGKTSQNIVKLINMLKADPIEIRGEKVVLKRAIPKGKFQLMHKDVIFQKKIGAGAYGTVYRGKLVKTDEVIAVKKLDPEGADEDGLAEMMKEARVMQLYDHPNIVKFHGFILDDLPYLLVLEYCNGGAVEDRLRDKGEKIKVPTRVKYTYMAACGMDYLHKKNCIHRDIASRNCLIHKGVVKMADFGMCRAQSVYKVDLKKPCNIRWLAPEVWDNGETRFNTDVYAFGIMMWEFFETPFKSPYVEMKAAQVKRKTRAGYRLPPPPSMPSRMVEIMSECWQVDAEKRPTAEELKEKLEEFKKKTENSITTSAPPTSVEKSKLSVSSEPTTKSVDPNKSRL | not soluble |
| MDAAVIVPAYNEAESLARCLAPFESQPVELVVVVGGDDGTEQVARDTPFVDTVVRCDEGGAGIARNRGAAAATAPILLFTDADTVVPEDWVRLHLRHYADDEVIGVGGPARPLEDSLKHRVLFKLLSDYWYRVSWPLGFVQQPGFNCSFRADAFKAAGGFNEDIPFMEDTELSLRMKDYGRIVYDADSCVATSARREADEGYVSLFAKYVRGYANHYILRREFDADYFLEHHHHHH | not soluble |
| MDAFKRNLEKLAELAIRVGLNLEKGQEVIATAPIEAVDFVRLLAEKAYREGASLFTVIYGDQELARKRLALAPEEGLDKAPAWLYEGMARAFREGAARLAVSGSDPKALEGLPPEKVGRAQKANARAYKPALEAITEFVTNWTIVPFAHPGWARAVFPGLPEEEAVRRLWEAIFQATRADQEDPIAAWEAHNRALHEKVAYLNARRFHALHFKGPGTDLVVGLAEGHLWQGGATATKGGRLCNPNLPTEEVFTAPHRERVEGVVRASRPLALGGTLVEGIFARFERGFAVEVRAEKGEEVLRRLLDTDEGARRLGEVALVPADNPIAKTGLVFFDTLFDENAASHIAFGQAYQENLEGRPSGEAFRKRGGNESLVHVDWMIGSEEMDVDGLYEDGTRTPLMRRGRWVV | soluble |
| MDAKQRIARRVAQELRDGDIVNLGIGLPTMVANYLPEGIHITLQSENGFLGLGPVTTAHPDLVNAGGQPCGVLPGAAMFDSAMSFALIRGGHIDACVLGGLQVDEEANLANWVVPGKMVPGMGGAMDLVTGSRKVIIAMEHCAKDGSAKILRRCTMPLTAQHAVHMLVTELAVFRFIDGKMWLTEIADGCDLATVRAKTEARFEVAADLNTQRGDL | soluble |
| MDAQSYMPVPPGVGMEENFFSLDDILLSHERLPCRTESAFPRLGFLEKSSDSRDIPEGTKMEMPLWLAKGLYERKRRVLSVELPKVYREGWRTVFGADPTVVDLYKMGPYYYGLGSQMLHFESPENPEIANTILQTFIGRFRRTMDSSQNAYNEDTSALVERLDYLERSLFKAGQSGLNNFQLWEKGRSSHLTASSLVINYRKRKMTDLQA | not soluble |
| MDATISVVCYKSKTLSNGEHPLMLRISKDGKKKYQSLGISVNPKFWDFQKNKPKPKCPNLEYLQKIILDKKLELQKKMLEIKSDQKEYSAATLIEANEKLQVAKNVDCFYKEIIAQCEINNKCGNRLVYLNSYNSLKRFTNGKLEIPFNTINVAWLEKYEKWLRSNGNKETTISLMFRTLRSTYNKAIKERCAHLSDYPFQEYKISKFDTSTQKRAIAKTDMLKFTETSQPIGQKKYVELSKDIFIFSYLCGGINFTDIANLTQENIVNGRLHYIRQKTGKLIKIGIPQEAMQIIKKYTDESNG | not soluble |
| MDDKEKNAEVAKAIKLPDLASYMQVVIKQLEIDKKWSAVHTYTYTLKSVTEFYGGKGTPVPIDEAFTSGRLKEYEEWMRLEGTRNKKTDKKRSDRKHGVPKGLSLNTISTYMRTLKAVYNRLADKKILPYNPKLFDNVYTKVESQTKRALDTKQMNTLLHTDIEKLPKEMQCALAYFLLMFLFRGMPFIDLAHLRKQDVKGKYIVYSRHKTGRQITVRIPKEAMKLIEKFKNMNYDSIYLFPILDKKNAAKEQSQKNGKIKKDKELYMNYLRVLRNFNLKLEKIATLLLPDVKLSSYTPRHTWATLAFHAGVNIGIICKALGHSSIKVTETYLKPFENEKVDIANDELIISVVAHNGEKEVA | not soluble |
| MDDQGGTRPDLLSLKPTAVPRLPLVLLARSRLVAKLDDTADTVLICAPAGYGKTLLLSQWLEDQAHKVAWLSPNQHNREALWPAMLQALRRSPAIPPGALRQFSGDEEDAVEVLGDLAQELASTGTSVRLVIDGVDGFSSDERERWIPALLNQSGPPIQLALVARDSTAVDAGPARLSGRIVELRSSDLAFSLEEINVLAAKTTTL | not soluble |
| MDDRTEYDVYTDGSYVNGQYAWAYAFVKDGKVHYEDADVGKNPAAATMRNVAGEIAAALYAVKKASQLGVKIRILHDYAGIAFWATGEWKAKNEFTQAYAKLMNQYRGIYSFEKVKAHSGNEFNDYVDMKAKSALGIRDLEHHHHHH | soluble |
| MDELFEEHLEIAKALFAQRLPYWCDVFLRPADQAFNAYLNARGQASTYLVLEGFDPVYVPRGCDLDAVRATARARARLREAGLGEDALPVLL | not soluble |
| MDEPVDVELVLAVDVSLSMSADELEIQRHGYAAALTHDNVLQAIADGAHGKIAVTYVEWAGTTWQRVIVPWTVIANRADAERVVAQLSAQPPNSARRTSISGALEFGSDLFAESGYEGTKRVIDISGDGPNNQGAPVNLTRDGVVRQGIVINGLPLMTRGGLSGAYDVNDLDRYYSDCVIGGPGAFMIPVNDWTQFPEAIRRKLVLELAGLEHHHHHH | soluble |
| MDESEPVRQIYDHKDLAEFLESSAFQDIWDFVERLNCSVRGLSGDALAGPRVPATSLVTAELAALKELAAEVELLPAETGRFGNRAFRTWFSQLQERTPRFTEELLVKSDQTKRYGPDLQAYFLGAFGDPMRIDYGTGHEASFLLFMFCLHRLHLFRAEDFPELVLSVFPAYLATTRYLQQRFTLEPAGSHGVWGLDDYVFLPFLFGSSQLIGKDTEVPPVAARDRELVLELAPKYLYFDTIRFILETKRGPFAEHSPTLYDISGLENWSRINAGLLRMYKAEVWSKLPVIQHIPFGILIPFRSAARTSTERLPAGS | not soluble |
